Assay results published in PMC7181051, “Probing the Protein-Protein Interaction between the ATRXADD Domain and the Histone H3 Tail” (Molecules, 2020).
“And” between values parts separate entries of the source, which are not always exact repeats. Equal entries are not always repeated. One block for each substance: values may come before it.

Key:
[1] = molecular target: Histone H3 (Homo sapiens) (UniProt P68431); conditions: cited from earlier work
[2] = molecular target: Histone H3 H3 tail peptide (Homo sapiens) (UniProt P68431); conditions: cited from earlier work
[3] = molecular target: Histone H3 1-15 (Homo sapiens) (UniProt P68431); assay: ITC; conditions: cited from earlier work
[4] = molecular target: ATRXADD-His (His-tagged ATRX ADD domain) (UniProt P46100); assay: AlphaScreen or HTRF; competition, Ni-NTA kit: ATRXADD-His (625 nM), H3_(1-15)K9me3-biotin (94 nM), 20 μg/mL of each bead, unlabeled peptide added; HEPES buffer (50 mM HEPES, 100 mM NaCl, 0.1% Triton X-100, 0.1% BSA); 1 hour, room temperature, dark
[5] = molecular target: ATRXADD-His (His-tagged ATRX ADD domain) (UniProt P46100); assay: AlphaScreen or HTRF; direct signal, Nickel Chelate (Ni-NTA) kit: H3_(1-15)K9me3-biotin on streptavidin beads, ATRXADD-His on Ni-NTA beads; 20 μg/mL of each bead

Substance: ATRX ADD (from UniProt P46100)
Kd [1]: > 80 µM | Kd [2]: > 80 µM | Kd [3]: 0.385 µM and 2.7 µM

IC50 [4]: > 10 µM
Substance: H3_(1-15)K9me0 peptide (from UniProt P68431 2-16)

IC50 [4]: > 10 µM
Substance: H3_(1-15)K9me1 peptide (from UniProt P68431 2-16)

AlphaScreen signal [5]: 1.25e+06
Substance: H3_(1-15)K9me3-biotin peptide (biotin label at the C-terminus) (from UniProt P68431 2-16)
